Data reported in the supplement of paper PMC9170038.

Test system: MS2 coat protein
Experiment: apparent KD of MS2 coat protein; designed switch direction (-1 OFF switch, 1 ON switch): -1; higher = weaker reporter binding
In short: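 Transcription of designed RNA switches on Illumina chips was done by stalled E. coli RNA polymerase. SNAP-549-labelled MS2 coat protein was then titrated in doubling steps from 0.7 or 1.5 nM to 3 µM, with steps of 0.8–1.5 h at the lowest and 10–20 min at the highest concentration. The per-design median over clusters of curve-fitted normalised fluorescence is reported as apparent KD.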

[1] = Eterna round: R95, input ligand: FMN 200 uM
[2] = Eterna round: R95, input ligand: microRNA oligo, concentration not stated
[3] = Eterna round: R95, input ligand: none
[4] = input ligand: microRNA oligo, concentration not stated

AAGAAACAUGAGGAUCACCCAUGUGAGGAUAUGUAAAAGAAAAUAAAAUAAAUAAGAAACAGAAGGCACAAAGG [Mat - Mod of Hog D19] (puzzle: Exclusion 1)
apparent KD of MS2 coat protein [1]: 0.0532 µM | apparent KD of MS2 coat protein [2]: 0.0392 µM | apparent KD of MS2 coat protein [3]: 0.0448 µM

ACAUGGAAGCAGGAUAUGCUUGUAUAAUUGUUUGCAGAAGGGCUAACAUGAGGAUCACCCAUGUAAGAGGUCUA [JR_E6_Sub061] (puzzle: Exclusion 6)
apparent KD of MS2 coat protein [2]: 0.0159 µM

GGGUAGUGAGGAUAUCGUUGUUAGGAGGAGUAGGUAGGAGGCGAGAAGGCACAUGAGGAUCACCCAUGUAUGAG [JR_Exclu4_Sub065] (puzzle: Exclusion 4)
apparent KD of MS2 coat protein [2]: 0.0255 µM

AAUGAGCUAGGAUAUACAUGAGGAUCACCCAUGUAAAAUAGGUCAUGGAGGAACCACUGUAGAAGGAGCAGGGC [Zagereti] (puzzle: Exclusion 3)
apparent KD of MS2 coat protein [2]: 0.0471 µM

GGUGGACAUGAGGAUCACCCAUGUGAGGAUAUCGGCUGGCUAGUGGCGGAUGGCUUCUCGAGAAGGCGCAUAGU [Exclusion 1 V80] (puzzle: Exclusion 1)
apparent KD of MS2 coat protein [2]: 0.0502 µM

CGAUAGAUAGGAUAUAUAAUUGGAAUUCACCUUGGGCGGCUACAUGAGGAUCACCCAUGUAGAAGGGUCUUCGA [Eternabot (L1) Solution 80] (Eterna round: R97, puzzle: Exclusion 2)
apparent KD of MS2 coat protein (input ligand: FMN 200 uM): 0.0163 µM | apparent KD of MS2 coat protein (input ligand: none): 0.0185 µM

GCGCCAUCGUGAGAUGGCGUUUCGACAUGAGGAUCACCCAUGUAGGAUAUCGAUUGCUUUGCAGUCGAGAAGGGCGUGAUAAGU [JL ENG3 3.72] (Eterna round: R96, puzzle: Exclusion NG 3)
apparent KD of MS2 coat protein (input ligand: FMN 200 uM): 0.104 µM | apparent KD of MS2 coat protein [4]: 0.0744 µM | apparent KD of MS2 coat protein (input ligand: none): 0.0982 µM

UCCUCACAUGAGGAUCACCCAUGUCAGGAUAUCCAGUUGGGCCUCUGUAGAGGCGCCAGGAGAAGGGAUAAGGA [Ceenerso] (Eterna round: R97, puzzle: Exclusion 1)
apparent KD of MS2 coat protein (input ligand: FMN 200 uM): 0.0359 µM | apparent KD of MS2 coat protein (input ligand: none): 0.0223 µM

UGAUCUAGCGGAGGAUAUACAUGAGGAUCACCCAUGUAAGUCGCCUUACCGUAGUGAAGCAUCAUGUAGAAGGCCGCUAGAUCU [MOD4 ENG2 3.62 by JL (unstable but ms2 present in dot)] (Eterna round: R96, puzzle: Exclusion NG 2)
apparent KD of MS2 coat protein (input ligand: FMN 200 uM): 0.153 µM | apparent KD of MS2 coat protein [4]: 0.0199 µM | apparent KD of MS2 coat protein (input ligand: none): 0.0573 µM

GGAUUACAUGAGGAUCACCCAUGUCAGGAUAUGAAAGCAUAUGCCGAAAGGCAUAUGCGCAGAAGGGACAAUAU [AK-MS2ROC-r4-exclusion1-3.0] (Eterna round: R97, puzzle: Exclusion 1)
apparent KD of MS2 coat protein (input ligand: FMN 200 uM): 0.0457 µM | apparent KD of MS2 coat protein (input ligand: none): 0.0275 µM

AAAUAGCUAGAGGAUAUUGGAUAGGAUUUAGUGCGAGAAGGCUAGACAUGAGGAUCACCCAUGUUGUGUUGGGA [EX6 #14] (Eterna round: R97, puzzle: Exclusion 6)
apparent KD of MS2 coat protein (input ligand: FMN 200 uM): 0.0823 µM | apparent KD of MS2 coat protein (input ligand: none): 0.0503 µM

CCGCGUACAGGAUAUCCAUCUGGAUCAGACAAGAUCCUGAUGGAGAAGGGACAUGAGGAUCACCCAUGUUGCGG [Mat - Exclusion 4 - Eli Mod - D54] (Eterna round: R97, puzzle: Exclusion 4)
apparent KD of MS2 coat protein (input ligand: FMN 200 uM): 0.019 µM | apparent KD of MS2 coat protein (input ligand: none): 0.0193 µM

CUUAGACAUGAGGAUCACCCAUGUGAGGAUAUGAAAUUAAUUAAUUAUUAAGUAUGAAUCAGAAGGCACAUAUG [Mat - Mod of Hyphema D36] (puzzle: Exclusion 1)
apparent KD of MS2 coat protein [1]: 0.0799 µM | apparent KD of MS2 coat protein [2]: 0.0816 µM | apparent KD of MS2 coat protein [3]: 0.0789 µM

ACAUGAGGAUCACCCAUGUAAACAUAAUGGCUCAUGUAGAGUCAGGAUAUGCGUGGCGAACAACCGCAGAAGGGACAAGACUGG [Deportation 27 - Jieux - Exclusion NG 3] (Eterna round: R96, puzzle: Exclusion NG 3)
apparent KD of MS2 coat protein (input ligand: FMN 200 uM): 0.0257 µM | apparent KD of MS2 coat protein [4]: 0.0204 µM | apparent KD of MS2 coat protein (input ligand: none): 0.029 µM

AUUAUACAUGAGGAUCACCCAUGUGAGGAUAUCCGCAGCACAGGCAGAGUCGGUUGCAGGAGAAGGCACUCCUC [Eternabot (L1) Solution 57] (Eterna round: R97, puzzle: Exclusion 1)
apparent KD of MS2 coat protein (input ligand: FMN 200 uM): 0.0725 µM | apparent KD of MS2 coat protein (input ligand: none): 0.0444 µM

CAUGGAUGUGAGCCGCAUUACAUGAGGAUCACCCAUGUCAACAAGCUUUUUGCUUGUCUUACGCGGCGGCAUCAAAA [Geonso] (puzzle: Sensor v3, turn-off variant 1)
apparent KD of MS2 coat protein [1]: 0.012 µM | apparent KD of MS2 coat protein [2]: 0.00986 µM | apparent KD of MS2 coat protein [3]: 0.0103 µM

UGCGGGCUUUUGAGACCUCACAUGAGGAUCACCCAUGUGCUCGUCUUAUGGGCCGGCCGGCCGUUGGCCGGCCGGCC [-44, -68.1 kcal, A 12%] (Eterna round: R97, puzzle: Sensor, turn-off variant 1)
apparent KD of MS2 coat protein (input ligand: FMN 200 uM): 0.0702 µM | apparent KD of MS2 coat protein (input ligand: none): 0.0678 µM

UACACCGCAUGAGGAUCAAACAUGAGGAUCACCCAUGUAUAGCAAGCUUUUUGCUCGUCUUAUAAAUAUGUGGUGUA [Electric Eye 8 - Jieux - Sensor, turn-off variant 1] (Eterna round: R97, puzzle: Sensor, turn-off variant 1)
apparent KD of MS2 coat protein (input ligand: FMN 200 uM): 0.0166 µM | apparent KD of MS2 coat protein (input ligand: none): 0.0155 µM

CGCUGGACAGGAUAUGUUCUUGGGCACUUGAGGAUCACCCAAGUCAUCGGGACAUCAGGCACAGAAGGGUCGUUGG [salish99_ex5_r4_029] (Eterna round: R97, puzzle: Exclusion 5)
apparent KD of MS2 coat protein (input ligand: FMN 200 uM): 0.0222 µM | apparent KD of MS2 coat protein (input ligand: none): 0.0256 µM

GUCACUAGAGGAUAUACAAUGGUAUAUGAUCCUAGAGACAUACAUGAGGAUCACCCAUGUAGAAGGCUAGUAAU [Exclusion 2 - 6] (puzzle: Exclusion 2)
apparent KD of MS2 coat protein [2]: 0.0687 µM

UUUUUGUAUGAAGGAUAUACUUAACAUGAGGAUCACCCAUGUGGUGUUGUGAGUGAGUGAGUUUAGUAGAAGGUCAAGUAUUUU [JMF's solution 46] (Eterna round: R96, puzzle: Exclusion NG 2)
apparent KD of MS2 coat protein (input ligand: FMN 200 uM): 0.58 µM | apparent KD of MS2 coat protein [4]: 0.606 µM | apparent KD of MS2 coat protein (input ligand: none): 0.39 µM

UUAAUACAUGUAGGAUAUGCGUGGCGAAGCUAUGCAGAAGGACAUGAGGAUCACCCAUGUCUCUGCGUCCGCGUACGGAUGCAA [JL Eng1 1.21 mod 5] (Eterna round: R96, puzzle: Exclusion NG 1)
apparent KD of MS2 coat protein (input ligand: FMN 200 uM): 0.0139 µM | apparent KD of MS2 coat protein [4]: 0.0116 µM | apparent KD of MS2 coat protein (input ligand: none): 0.0158 µM

CCUCACCGAGGAUAUACAUGAGGAUCACCCAUGUGAUCCUAAGGCUGAUCAAGCCUAUGUAGAAGGCGCAAAUC [salish99_ex3_r4_005] (Eterna round: R97, puzzle: Exclusion 3)
apparent KD of MS2 coat protein (input ligand: FMN 200 uM): 1.01 µM | apparent KD of MS2 coat protein (input ligand: none): 0.765 µM

GUCAGCUCGUGAGGAUAUACAUGCGUGCUUCGGCACGUAUGAUAGAUCACAUGAGGAUCACCCAUGUAGAAGGCACGAGCUGAU [ENG2/4-A2] (Eterna round: R96, puzzle: Exclusion NG 2)
apparent KD of MS2 coat protein (input ligand: FMN 200 uM): 0.0217 µM | apparent KD of MS2 coat protein [4]: 0.0104 µM | apparent KD of MS2 coat protein (input ligand: none): 0.0118 µM

UUAUACGGUGAGGAUAUCUCCACUAAAGUGUGAAGAGAAGGCGCUACAUGAGGAUCACCCAUGUCUAUGGGCAG [Ex-6 Malc#16] (puzzle: Exclusion 6)
apparent KD of MS2 coat protein [1]: 0.905 µM | apparent KD of MS2 coat protein [2]: 0.262 µM | apparent KD of MS2 coat protein [3]: 0.32 µM

GGGUGACAUGAGGAUCACCCAUGUCAGGAUAUGAUUCUGCUUGCGAAAGCGAGUAGAAUCAGAAGGGACAACCC (Eterna round: R97, puzzle: Exclusion 1)
apparent KD of MS2 coat protein (input ligand: FMN 200 uM): 0.359 µM | apparent KD of MS2 coat protein (input ligand: none): 0.057 µM

UUGUAACGAUUAGGAUAUUAUUAAUAGAACUUUAUGAUAUACAUGAGGAUCACCCAUGUUACUUUUAAGAAGGAAUCGUAUUAU [JR_ExcNG2_Sub091] (Eterna round: R96, puzzle: Exclusion NG 2)
apparent KD of MS2 coat protein [4]: 0.017 µM

ACCUCACUUGAGGAUCACCCAAGUCAGGAUAUACUCGUUUGCCACAAAACGCGGCAUUGUAGAAGGGACGGGCU [Esusso] (Eterna round: R97, puzzle: Exclusion 1)
apparent KD of MS2 coat protein (input ligand: FMN 200 uM): 0.03 µM | apparent KD of MS2 coat protein (input ligand: none): 0.0215 µM

UGUGGGUCAGGAUAUUCUAUUUAUUACAUGAGGAUCACCCAUGUGAAUGUACAAGGGUGUGAAGAAGGGACUUGUG [LRO-Excl5-02-mod A17d by Omei] (Eterna round: R97, puzzle: Exclusion 5)
apparent KD of MS2 coat protein (input ligand: FMN 200 uM): 0.793 µM | apparent KD of MS2 coat protein (input ligand: none): 2.36 µM

UGAGUCUAAGGAUAUCUGAGGCGCGACAUGAGGAUCACCCAUGUCUCCAAGGAGAGAGCUGGAGAAGGUAGCUGGA [Eternabot (L2) Solution 81] (Eterna round: R97, puzzle: Exclusion 5)
apparent KD of MS2 coat protein (input ligand: FMN 200 uM): 0.0175 µM | apparent KD of MS2 coat protein (input ligand: none): 0.0186 µM

GGAGGGAAAGUGAGGAUAUCCGGAGGGAAACCUCCGGAGAAGGCACAUGAGGAUCACCCAUGUAAGGAAGGAGG [AK-MS2ROC-r4-Bmoexclusion4-1.1] (Eterna round: R97, puzzle: Brourd's mod of Exclusion 4)
apparent KD of MS2 coat protein (input ligand: FMN 200 uM): 0.203 µM | apparent KD of MS2 coat protein (input ligand: none): 0.135 µM

AAGGGUGCUUUCAGAACGACAUGAGGAUCACCCAUGUAGACUGAGGAUAUCUACUUCUAAGGACGGGAGAAGGCAGUGUAAUGU [Ex NG3 #71] (Eterna round: R96, puzzle: Exclusion NG 3)
apparent KD of MS2 coat protein (input ligand: FMN 200 uM): 0.0255 µM | apparent KD of MS2 coat protein [4]: 0.0178 µM | apparent KD of MS2 coat protein (input ligand: none): 0.0226 µM

UUAUGAGAGCAGGAUAUCUUAUUUUUUUUUUGUGGAGAAGGGCUCACAUGAGGAUCACCCAUGUGGUCCUAGAU [LRO-Excl6-25-mod of 4.86 by jal] (Eterna round: R97, puzzle: Exclusion 6)
apparent KD of MS2 coat protein (input ligand: FMN 200 uM): 0.0474 µM | apparent KD of MS2 coat protein (input ligand: none): 0.0329 µM

GUCAGCUCGUGAGGAUAUACAUGAGGAUCACCCAUGUGAUCAAUAGCAGCUUCGGCUGCAUUAAUGUAGAAGGCACGAGCUGAU [ENG2/5-A2] (Eterna round: R96, puzzle: Exclusion NG 2)
apparent KD of MS2 coat protein (input ligand: FMN 200 uM): 0.0101 µM | apparent KD of MS2 coat protein [4]: 0.166 µM | apparent KD of MS2 coat protein (input ligand: none): 0.203 µM
